Experimental data reported in a protein production outcome set (Wang et al. 2014).
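Also: failed if final PepcDB status was selected cloned or expressed and not failed if soluble or beyond.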

Assay: label from the status in PepcDB records
In the case of “MNEVKSLTTAEGPTKLLNLQLKDLGDSLIDVALWGKLAEDVYSNIKSQPSGPVFSSWKFDEDFAISRHSSKLKIYNKSLYPFSTTRDSSVSRSFNCFGETPQELLDLGGRNYVFKIMVKHEAKHNQSSTYKMISLTDVLNVIQSFFESASTLNDIEQEIITVSGNSVGTSIGTTTQAEINFVDVDNLDNNEDNAYYISTPKPITKRFLATSKHVQQSSTKP”, the protein production is reported as “not failed”.
With “MNEYLQAVLMILLTIVLYYVSKKIQDKYNNPLLNPALIASIAIIIVLLVCGVSYKGYMKGGTWINHVLNATVVCLAYPLYQNKKKIKKYLTIIFTSVLTGVVLNFVLVFTTLKIFGYSKDTIVTLLPRSITAAVGIEVSQELGGTDTITVLFIITTGLIGSILGSMLLRMGGFKSSIARGLTYGNASHAFGTAKALELDIESGAFSSIGMILTAVISSVLIPVLILLFY” the protein production was “failed”.
With “MNFAGQPLQDGSLPRIGTGKDALSLLDLSDFVARHWRFIGLVTVFVMALALAYLAAAPSRYTAQTDMIIDTKRVTWTQSEFATENRMVEDASVESEIETTKSEKVALQVIRKLRLTEDPEFIGSGTGLRNRLYQLLDLDAPISPQLTPSELEARALSRVKDNLKVMRLGRSYIEQISFTSLVPEKAAVIANAFADAYIEDQIQAKFEATRRASEWLQQRIGELRQQASDAYRAVQDFKSSNSIIVSGDGKLASDLELDQLGISLAKARAETSQARAKLERITRVLELRQEKGSNEIPDPVVTDALSNPVITRLRQQYLDNQSKEAEWSSRYGAEHQAARNLRSEMANVRQAIWDEVSRIAESYRSEVQIAKTQEDSIDKRMIEVFQSSTGTRQAQVHLRELETAATTYRGIYETFLTRFTQSVQQQSFPSTEARVVTLASPPSVRSSPKTNLTLALAAISGLTLGILGAFARDRMSRRIHTRAQLETILGTSCLAIIPSFANPALTSQTSTSSSRLSRAVKQLLRKRDHVPGQPRERSQANSAAFEKINDVAPFSATAEALRHIKVAIDLSPGGGRVIGIVSARPGEGKTTICASFAAFLARSGARTLLIDGDLRNPSLSRTLGYKNKRGLLELVADQLQLSDLVVTDPVYKFDFLPSATEMKPINSADVLTSPSVKRMLKSAAGNYDYIIVDLPPILPVVDVKAAAHLFDAFVLVVEWGATMSDEVRSAVGVSRSLSERLLGAVLNKTDEDVMRRLEGYSYRSHHYYYYGAPKHENEQTKN” the protein production was “failed”.
With “MNFEYPDGATPLDSDEAEGLLLTHITSRGELDRWEQENIAEGEAWAFGRRQKNILSEAFIRRLHKRMFGHVWRWAGEFRRSDKNIGVTWWQVPIELRKLCDDVVAWIAFGTYPPDEIAVRFHHRLVAIHPFANGNGRHARTMTDLLLVQALQRPRFTWGSGNLVSVGDCRRYYIEALRAADRHDYQLLLEFVRMLEHHHHHH” the protein production was “failed”.
With “MNFIIEPGSLADIDELERLYDELNDHLSATINYPGWIKGIYPVRENAAAGVDDNSLFVARCDGRIAGSVILDHQPEKAYENIVWKIDADYSYIFVVRTFVVHPSFLQMGVGHALMDFSLELALKSEMKSIRLDVYEKNLPAISLYEKCGFEYIDTVDLGLGHYGLDWFKLYEKVILEHHHHHH” the protein production was “not failed”.
With “MNGARKWFFPDGYIPNGKRGYLVSHESLCIMNTGDETAKIRITFLFEDSKPVVHEVEISPMKSLHLRLDKLGIPKCKPYSIMAESNVPVVMQLSRLDVGKNHYTLMTTIGYWEE” the protein production was “not failed”.
With “MNHDLLTNNPLLIVSAIFVFFILLEIACSAFGQPRGQRRDVLIEAVGSSLLLGVTFPLVMWASGALMQLSLPEAKGALAQIPWVLGLLLFLVFDDMTQYWWHRLTHRVPALYALHRAHHSAPYMSIRIVYRNNSFYYLLMPGIWFSGVLIYLGLAPVYYGYLILKMTVIFAAHSSVAWDDKLYRIGFLRPLMWLLERVFSTPSTHSAHHGLSAEDGVTHYKGNFGNLLFLWDVLFGTAKITRRRPVAYGIEHLAPVSWTQELFWPLVRSRKARASAVARVEGALPANPASQG” the protein production was “failed”.
For “MNHYFRAIGSMLILVYSTFFAIFFIDKVFVNIMYFQGMFYTQIFGIPVLLFLNLMVILLCIIVGSVLAYKINQQNHWLKDQIERSIEGQTVGINDQNIELYNETIELYQTLVPLNQEVHKLRMKTQNLTNESYNINDVKVKKIIEDERQRLARELHDSVSQQLFAASMMLSAIKETELKAPLDQQIPVLEKMIQDSQLEMRALLLHLRPIGLKDKSLGEGIKDLVVDLQKKVPMKVVHDIEEFKVPKGIEDHLFRITQEAISNTLRHSKGTKVTIELFNREEYLLLRIQDNGKGFNVDDKVEQSYGLKNMRERALEIGATFHIVSLPDAGTRIEVKAPLNKEDSNAD”, the protein production was “failed”.
